Test results reported in patent US20200000932A1.
One block for each binder: values may come before it.

Target: bovine submaxillary mucin (BSM) (bovine)
Experiment: BSM ELISA on BSM-coated wells, periodate-sensitive signal (periodate-treated wells subtracted)

EC50: 1.8 nM
B1: hSIA103 (antibody, human IgG1, kappa, V domains shown)
VH: QVQLVQSGAEVKKPGASVKVSCKASGYTFTDHAIHWVRQAPGQGLEWMGYISPGNGDIKYNEKFKDRVTMTADKSSSTAYMQLRSLRSDDTAVYFCKRSLLALDYWGQGTLVTVSS
VL: DIQMTQSPSSLSASVGDRVTITCKASQDVGTNIAWYQQKPGKAPKVLIYSASTRHTGVPSRFSGSGSGTDFTLTISSLQPEDFATYFCQQYSSFPLTFGQGTKVEIKR

EC50: 4.2 nM
B2: hSIA101 (antibody, human IgG1, kappa, V domains shown)
VH: EVQLVQSGAEVKKPGASVKVSCKASGYTFTDHAIHWVRQAPGQGLEWMGYFSPGNDDIKYNEKFRGRVTMTADKSSSTAYMELRSLRSDDTAVYFCKRSLSTPYWGQGTLVTVSS
VL: DIVMTQSPDSLAVSLGERATINCKSSQSLLNRGNHKNYLTWYQQKPGQPPKLLIYWASTRESGVPDRFSGSGSGTDFTLTISSLQAEDVAVYYCQNDYTYPYTFGQGTKVEIKR
